Literature values, collected in PMC9357288.
pKd: −log10 of the molar value.

Target: Hck SH3 (Homo sapiens) (UniProt P08631)
UniProt P08631, sequence (P08631 75-141): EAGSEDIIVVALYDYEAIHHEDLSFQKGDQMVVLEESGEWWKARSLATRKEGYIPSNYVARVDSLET

Substance: Nef (from UniProt P04324)
- pKd: 6.60
